T1: HIM-8 ZF1-2-CTD (Caenorhabditis elegans (N2), UniProt O18068 223-361)
T1 sequence: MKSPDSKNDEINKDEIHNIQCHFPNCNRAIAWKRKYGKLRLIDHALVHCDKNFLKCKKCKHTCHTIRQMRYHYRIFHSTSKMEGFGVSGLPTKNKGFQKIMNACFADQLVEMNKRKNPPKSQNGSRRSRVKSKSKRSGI

B1: X PC motif TG to CA (dsDNA)
DNA 1: TTGGTCAGCACA
DNA 2: TGTGCTGACCAA
B2: X chromosome PC motif 12 bp (dsDNA)
DNA 1: TTGGTCAGTGCA
DNA 2: TGCACTGACCAA

Target: T1, HIM-8 ZF1-2-CTD
Assay: ITC

Binder | binding result | Kd
B1 | no binding | 
B2 |  | 430 ± 10 nM

From paper PMC11605055
